Reference: paper PMC9911596 (Nature Communications, 2023)

T1: Vtc1/Vtc3/Vtc4 complex (VTC complex) (Saccharomyces cerevisiae, UniProt P47075+Q02725)
T1 construct: full-length subunits co-expressed in Expi293F; Vtc1 C-terminal HA, Vtc3 N-terminal 3xFlag, Vtc4 C-terminal 2xStrep; detergent-purified; 3:1:1 pentamer; with Vacuolar transporter chaperone complex subunit 1
T1 sequence (P47075 1-721): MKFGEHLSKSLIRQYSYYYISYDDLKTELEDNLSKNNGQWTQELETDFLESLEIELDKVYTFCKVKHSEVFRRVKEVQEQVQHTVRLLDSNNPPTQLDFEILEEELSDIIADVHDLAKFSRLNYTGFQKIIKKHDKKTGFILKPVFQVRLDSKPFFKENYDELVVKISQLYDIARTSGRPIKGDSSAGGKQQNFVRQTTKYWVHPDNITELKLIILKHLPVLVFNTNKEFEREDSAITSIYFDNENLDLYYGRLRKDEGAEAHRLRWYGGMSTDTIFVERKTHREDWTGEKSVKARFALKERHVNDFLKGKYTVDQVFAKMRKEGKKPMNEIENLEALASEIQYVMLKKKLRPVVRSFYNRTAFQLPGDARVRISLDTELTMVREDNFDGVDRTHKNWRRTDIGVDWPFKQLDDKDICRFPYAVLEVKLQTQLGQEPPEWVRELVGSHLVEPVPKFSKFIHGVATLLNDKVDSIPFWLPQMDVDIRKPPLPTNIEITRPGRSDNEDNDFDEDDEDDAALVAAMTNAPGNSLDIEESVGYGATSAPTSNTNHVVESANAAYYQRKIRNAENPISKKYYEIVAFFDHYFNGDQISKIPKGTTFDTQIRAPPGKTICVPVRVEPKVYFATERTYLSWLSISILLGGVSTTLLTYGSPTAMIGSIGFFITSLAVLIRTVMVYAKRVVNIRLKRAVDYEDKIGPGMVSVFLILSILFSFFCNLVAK
T1 sequence (Q02725 1-835): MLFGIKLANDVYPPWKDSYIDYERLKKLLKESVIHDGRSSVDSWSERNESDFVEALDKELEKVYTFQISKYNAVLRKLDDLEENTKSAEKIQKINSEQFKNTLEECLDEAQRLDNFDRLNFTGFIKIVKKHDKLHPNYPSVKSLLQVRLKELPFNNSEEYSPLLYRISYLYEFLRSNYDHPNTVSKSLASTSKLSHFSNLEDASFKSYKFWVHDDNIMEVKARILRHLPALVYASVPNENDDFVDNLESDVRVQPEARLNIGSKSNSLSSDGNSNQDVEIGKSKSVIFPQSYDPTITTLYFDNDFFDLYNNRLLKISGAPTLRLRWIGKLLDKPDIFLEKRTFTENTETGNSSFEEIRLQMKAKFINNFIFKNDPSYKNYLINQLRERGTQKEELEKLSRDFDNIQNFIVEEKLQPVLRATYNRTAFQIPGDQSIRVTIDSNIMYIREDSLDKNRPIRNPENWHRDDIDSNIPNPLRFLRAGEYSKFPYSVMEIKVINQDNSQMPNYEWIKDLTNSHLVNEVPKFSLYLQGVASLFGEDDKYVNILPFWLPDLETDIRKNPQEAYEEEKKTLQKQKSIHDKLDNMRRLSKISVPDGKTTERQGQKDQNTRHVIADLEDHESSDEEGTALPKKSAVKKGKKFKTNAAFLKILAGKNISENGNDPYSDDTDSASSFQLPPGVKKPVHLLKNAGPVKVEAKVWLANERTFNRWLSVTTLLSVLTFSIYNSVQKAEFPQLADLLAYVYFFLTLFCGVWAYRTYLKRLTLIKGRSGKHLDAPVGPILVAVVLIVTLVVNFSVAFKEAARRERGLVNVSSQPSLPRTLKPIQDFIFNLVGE
T1 sequence (P40046 2-129 partner): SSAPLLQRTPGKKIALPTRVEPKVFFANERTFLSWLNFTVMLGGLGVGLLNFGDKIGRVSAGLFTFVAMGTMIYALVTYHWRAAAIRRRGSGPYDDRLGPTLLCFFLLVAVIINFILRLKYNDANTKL

T2: Vtc3 (Baker's yeast, UniProt Q02725 1-835)
T2 construct: Vtc3, yeast, UniProt Q02725; codon-optimized DNA in the pMlink vector; source: Expi293F cells, transiently cotransfected with the Vtc1 and Vtc4 plasmids; purified as part of the VTC complex (anti-Flag resin, Strep-Tactin resin; SEC for the cryo-EM sample); not shown: 3×Flag, N-terminal, kept
T2 sequence: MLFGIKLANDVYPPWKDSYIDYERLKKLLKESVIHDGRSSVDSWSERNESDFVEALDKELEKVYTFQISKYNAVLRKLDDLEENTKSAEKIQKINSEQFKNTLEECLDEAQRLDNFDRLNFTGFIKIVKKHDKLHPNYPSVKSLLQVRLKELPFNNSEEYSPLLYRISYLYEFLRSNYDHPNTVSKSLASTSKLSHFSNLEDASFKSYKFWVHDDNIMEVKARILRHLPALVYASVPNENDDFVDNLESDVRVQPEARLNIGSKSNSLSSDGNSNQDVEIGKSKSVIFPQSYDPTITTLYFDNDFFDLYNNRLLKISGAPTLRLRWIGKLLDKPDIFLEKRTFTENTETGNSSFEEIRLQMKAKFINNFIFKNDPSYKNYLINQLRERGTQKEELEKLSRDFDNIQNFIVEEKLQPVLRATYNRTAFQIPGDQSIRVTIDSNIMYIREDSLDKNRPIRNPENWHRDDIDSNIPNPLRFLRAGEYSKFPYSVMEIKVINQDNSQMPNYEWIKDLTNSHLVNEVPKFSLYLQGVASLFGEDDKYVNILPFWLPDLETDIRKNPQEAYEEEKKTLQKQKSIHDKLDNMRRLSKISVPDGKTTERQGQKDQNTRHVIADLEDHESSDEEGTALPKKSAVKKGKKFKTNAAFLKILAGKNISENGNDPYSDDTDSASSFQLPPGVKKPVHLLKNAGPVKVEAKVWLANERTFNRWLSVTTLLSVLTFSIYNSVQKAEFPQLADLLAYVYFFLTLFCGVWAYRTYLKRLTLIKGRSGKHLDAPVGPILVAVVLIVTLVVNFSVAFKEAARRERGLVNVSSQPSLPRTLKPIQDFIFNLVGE

B1: Vtc4_(R264A/R266A/E426N) (natural protein, Baker's yeast)
chain: KFGEHLSKSLIRQYSYYYISYDDLKTELEDNLSKNNGQWTQELETDFLESLEIELDKVYTFCKVKHSEVFRRVKEVQEQVQHTVRLLDSNNPPTQLDFEILEEELSDIIADVHDLAKFSRLNYTGFQKIIKKHDKKTGFILKPVFQVRLDSKPFFKENYDELVVKISQLYDIARTSGRPIKGDSSAGGKQQNFVRQTTKYWVHPDNITELKLIILKHLPVLVFNTNKEFEREDSAITSIYFDNENLDLYYGRLRKDEGAEAHALAWYGGMSTDTIFVERKTHREDWTGEKSVKARFALKERHVNDFLKGKYTVDQVFAKMRKEGKKPMNEIENLEALASEIQYVMLKKKLRPVVRSFYNRTAFQLPGDARVRISLDTELTMVREDNFDGVDRTHKNWRRTDIGVDWPFKQLDDKDICRFPYAVLNVKLQTQLGQEPPEWVRELVGSHLVEPVPKFSKFIHGVATLLNDKVDSIPFWLPQMDVDIRKPPLPTNIEITRPGRSDNEDNDFDEDDEDDAALVAAMTNAPGNSLDIEESVGYGATSAPTSNTNHVVESANAAYYQRKIRNAENPISKKYYEIVAFFDHYFNGDQISKIPKGTTFDTQIRAPPGKTICVPVRVEPKVYFATERTYLSWLSISILLGGVSTTLLTYGSPTAMIGSIGFFITSLAVLIRTVMVYAKRVVNIRLKRAVDYEDKIGPGMVSVFLILSILFSFFCNLVAK
notes: Vtc4, yeast, UniProt P47075; codon-optimized DNA in the pMlink vector; three substitutions in the TTM domain; also called catalytically impaired Vtc4; source: Expi293F cells, transiently cotransfected with the Vtc1 and Vtc3 plasmids; purified as part of the VTC complex with 1 mM InsP6 (anti-Flag resin, Strep-Tactin resin, SEC); not shown: 2×Strep, C-terminal, kept

Legend:
[1] = target: T1, Vtc1/Vtc3/Vtc4 complex (VTC complex); experiment: polyP synthesis, TBE-PAGE and DAPI; type: biochemical; conditions: 15 mM ATP, 10 mM MgCl2, 1 mM MnCl2, 0.5 mM pyrophosphate, InsP6, 27 °C, 4 h
Vtc3 = target: T2, Vtc3; experiment: cryo-EM structure; Vtc1/Vtc3/Vtc4_(R264A/R266A/E426N) complex co-expressed in Expi293F and purified with 1 mM InsP6, 0.02% GDN, 25 mM Tris-HCl pH 8.0, 150 mM NaCl; 3.0 Å; conditions: both partners purified
Vtc4_(R264A/R266A/E426N) = target: B1; experiment: as above; conditions: both partners purified
[2] = target: the molecule itself; experiment: as above

stoichiometry N (Vtc3) | stoichiometry N (Vtc4_(R264A/R266A/E426N)) | Molecule | polyP synthesis, TBE-PAGE and DAPI [1] | stoichiometry N [2]
 |  | Nc1ncnc2c1ncn2[C@@H]1O[C@H](COP(=O)(O)OP(=O)(O)OP(=O)(O)O)[C@@H](O)[C@H]1O [ATP] | we incubated VTC complex with ATP and InsP6 | 
1 |  | B1 |  | 
3 | 3 | Vtc1 (natural protein, Baker's yeast, Vtc1, yeast, UniProt P40046; codon-optimized DNA in the pMlink vector; Three copies of Vtc1 stand in the Vtc1/Vtc3/Vtc4 complex (3:1:1); also called Vtc1A; Vtc1B; source: Expi293F cells, transiently cotransfected with the Vtc3 and Vtc4 plasmids; purified as part of the VTC complex (anti-Flag resin, Strep-Tactin resin; SEC for the cryo-EM sample)) SSAPLLQRTPGKKIALPTRVEPKVFFANERTFLSWLNFTVMLGGLGVGLLNFGDKIGRVSAGLFTFVAMGTMIYALVTYHWRAAAIRRRGSGPYDDRLGPTLLCFFLLVAVIINFILRLKYNDANTKL |  | 3
